In patent publication US20180094062A1 (Hoffmann-La Roche, published 2018):

T1: TtSlyDcas
T1 construct: negative control scaffold without the HER3 β-hairpin
T1 chain: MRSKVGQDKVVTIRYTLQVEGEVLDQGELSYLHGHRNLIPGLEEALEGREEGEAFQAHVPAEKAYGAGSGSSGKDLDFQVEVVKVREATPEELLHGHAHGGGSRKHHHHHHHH

T2: recombinant Thermus thermophilus SlyD FKBP-Her3 (TtSlyD-FKBP-Her3)
T2 construct: expressed in E. coli, the N-terminal methionine can be present or not; also called thermo SlyD-Her3; T.T.SlyD-Her3
T2 chain: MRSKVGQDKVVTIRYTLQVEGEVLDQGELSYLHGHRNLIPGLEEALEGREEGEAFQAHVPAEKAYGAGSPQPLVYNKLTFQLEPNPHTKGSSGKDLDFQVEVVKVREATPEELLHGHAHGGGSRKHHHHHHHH


What was measured:
[1] = target: HER4, full length, on transfected HEK293 cells (human, UniProt Q15303 26-1308); assay: IHC on HEK293 cells transiently transfected with full length HER4; NC = untransfected cells
Sequence of HER4, full length, on transfected HEK293 cells (Q15303 26-1308): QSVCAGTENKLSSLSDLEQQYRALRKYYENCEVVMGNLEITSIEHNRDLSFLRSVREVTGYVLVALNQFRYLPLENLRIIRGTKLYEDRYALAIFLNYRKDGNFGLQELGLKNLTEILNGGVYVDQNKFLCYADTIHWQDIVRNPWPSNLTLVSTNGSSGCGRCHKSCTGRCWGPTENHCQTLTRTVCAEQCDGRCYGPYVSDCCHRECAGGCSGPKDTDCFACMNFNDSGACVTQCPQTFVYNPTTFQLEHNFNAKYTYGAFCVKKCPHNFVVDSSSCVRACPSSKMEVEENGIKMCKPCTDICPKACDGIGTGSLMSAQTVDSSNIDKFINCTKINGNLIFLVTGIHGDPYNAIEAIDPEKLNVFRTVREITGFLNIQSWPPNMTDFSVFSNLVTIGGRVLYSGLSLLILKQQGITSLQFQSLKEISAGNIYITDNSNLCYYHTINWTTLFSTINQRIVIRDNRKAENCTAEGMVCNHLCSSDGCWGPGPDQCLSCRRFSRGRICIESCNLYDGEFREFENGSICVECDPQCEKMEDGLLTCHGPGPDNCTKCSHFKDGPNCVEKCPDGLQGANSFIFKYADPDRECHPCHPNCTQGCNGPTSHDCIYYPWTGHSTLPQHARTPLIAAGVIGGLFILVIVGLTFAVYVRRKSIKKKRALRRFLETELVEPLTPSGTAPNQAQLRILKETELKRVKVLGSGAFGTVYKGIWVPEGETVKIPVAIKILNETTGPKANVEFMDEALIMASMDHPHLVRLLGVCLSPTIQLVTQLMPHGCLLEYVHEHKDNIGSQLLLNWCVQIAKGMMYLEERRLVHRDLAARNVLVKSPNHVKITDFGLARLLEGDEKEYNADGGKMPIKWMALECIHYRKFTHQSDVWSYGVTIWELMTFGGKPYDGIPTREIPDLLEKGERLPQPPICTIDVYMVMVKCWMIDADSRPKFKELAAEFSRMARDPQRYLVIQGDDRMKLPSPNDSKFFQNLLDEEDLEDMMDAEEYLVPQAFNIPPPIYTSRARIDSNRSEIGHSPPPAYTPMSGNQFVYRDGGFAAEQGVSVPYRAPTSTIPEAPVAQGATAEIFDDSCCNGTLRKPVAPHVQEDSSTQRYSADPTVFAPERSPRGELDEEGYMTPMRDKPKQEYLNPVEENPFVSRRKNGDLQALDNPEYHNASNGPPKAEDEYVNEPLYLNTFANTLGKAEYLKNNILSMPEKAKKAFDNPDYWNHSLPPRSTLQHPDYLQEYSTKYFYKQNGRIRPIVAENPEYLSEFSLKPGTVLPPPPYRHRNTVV
Protocol: (§1) All selected clones were tested for reactivity and specificity in IHC. […] After an additional fixation in formalin overnight the Agarose blocks were embedded in paraffin. Untransfected HEK293 cells were used as negative controls and treated accordingly to the transfected cells. After paraffin embedding 3 μm thin sections were prepared using a microtome. The sections were mounted on glass microscopy slides and dried for 2 h. All further steps of the immunohistochemical staining procedure were carried out using a Ventana Benchmark XT. The slides were dewaxed and antigen retrieval was performed by applying heat for 1 hour. For antigen retrieval the Ventana buffer CC1 was used. The antibodies were used at a concentration of 1 μg/ml. For the detection of bound antibody the Ventana UltraView detection kit was used.

[2] = target: T3, human recombinant HER3 Extracellular Domain (HER3 ECD) (human, UniProt P21860 20-643); assay: SPR Biacore T200, antibody captured, 25 C
T3 construct: 68 kDa; also called human-Her3-ECD
Protocol: (§2) A Biacore T200 instrument (GE Healthcare) was mounted with a CM5 series sensor. The sensor was normalized in HBS-ET buffer (10 mM HEPES pH 7.4, 150 mM NaCl, 3 mM EDTA, 0.05% w/v Tween 20) according to the manufacturer's instructions. The sample buffer was the system buffer supplemented with 1 mg/ml CMD (Carboxymethyldextran, Sigma #86524). The system operated at 25° C. 6500 RU RAM-Fcγ (relative units of Fcγ-fragment RamlgG, GE Healthcare) were immobilized according to the manufacturer's instructions using amine coupling EDC/NHS chemistry on all four flow cells. The sensor was deactivated using 1M ethanolamine. […] Concentration dependent kinetics were measured. […] All analytes were injected for 5 min association time and 10 min dissociation time at 100 μl/min flow rate. The sensor capture system was regenerated by a 3 min injection at 10 μl/min of 10 mM glycine pH 1.7. Where possible kinetic data was evaluated using the Biacore T200 evaluation software.

TtSlyDcas = target: T1, TtSlyDcas; assay: SPR Biacore T200, antibody captured, 25 C
Protocol: as §2

[3] = target: T4, HER3 ECD-HRG complex (Heregulin-activated Her-3 ECD) (human, UniProt P21860 20-643); assay: SPR Biacore T200, antibody captured, 25 C
T4 construct: receptor-ligand complex made by preincubating HER3 ECD with a five-fold molar excess of Heregulin; also called Heregulin/Her-3 ECD; Heregulin-complexed Her-3 ECD
Protocol: as §2

[4] = target: T4, HER3 ECD-HRG complex …; assay: SPR, Interaction Map (TraceDrawer), two-state-kinetic no. 1, 25 C
Protocol: as §2

[5] = target: T3, human recombinant HER3 Extracellular …; assay: SPR Biacore 4000 kinetic screening, antibody captured, analyte 150 nM, 25 C
Protocol: (§3) In all assay the test antibodies were captured. The system was under the control of the software version V1.1. The instrument buffer was HBS-EP (10 mM HEPES (pH 7.4), 150 mM NaCl, 1 mM EDTA, 0.05% (w/v) P20). The system operated at 25° C. 30 μg/ml Rabbit polyclonal antibody (RAM IgG, (Rabbit anti Mouse IgG with Fc gamma specificity) GE Healthcare) in 10 mM sodium acetate buffer (pH 4.5) was immobilized using EDC/NHS chemistry according to the manufacturer's instructions on the spots 1, 2, 4 and 5 in the flow cells 1, 2, 3 and 4. The sensor was saturated using 1M ethanolamine. In each flow cell, referenced signals were calculated using spots 1-2 and spots 5-4, spot 3 served as a blanc control. […] Prior to their application the hybridoma culture supernatants were diluted 1:5 in instrument buffer. The diluted mixtures were injected at a flow rate of 30 μl/min for 2 min. The antibody capture level (CL) in response units was monitored. Immediately thereafter the respective antigen was injected at a flow rate of 30 μl/min for 3 min association time. Thereafter, the antibody-antigen complex dissociation signal was recorded for 5 min. The sensor was regenerated by injecting a 10 mM glycine-HCl solution (pH 1.7) for 2 min at a flow rate of 30 μl/min. The recorded signal shortly before the end of the injection of the antigen was denoted as binding late (BL) in response units. The recorded signal shortly before the end of the recording of the dissociation is denoted as stability late (SL) in response units. The dissociation rate constants were determined calculated The antibody-antigen complex stability in minutes was calculated with the following formula: […]. The Molar Ratio was calculated with the formula: MW (antibody)/MW (antigen) *BL (antigen)/CL (antibody).

[6] = target: T2, recombinant Thermus thermophilus SlyD …; assay: as above
Protocol: as §3

[7] = target: HER2, full length, on cells (transfected HEK293, MCF7) (human, UniProt P04626 23-1255); assay: IHC on HEK293 cells transiently transfected with full length HER2; NC = untransfected cells
Protocol: as §1

[8] = target: T5, HER1, full length, on transfected HEK293 cells (human, UniProt P00533 25-1210); assay: IHC on HEK293 cells transiently transfected with full length HER1; NC = untransfected cells
T5 construct: HEK293 transiently transfected with a plasmid coding for full length HER1; also called EGFR
Protocol: as §1

Binder | binding result [1] | Kd [2] [nM] | MR (Molar Ratio) [2] | koff [2] [s⁻¹] | kon [2] [M⁻¹ s⁻¹] | MR (Molar Ratio) (TtSlyDcas) | binding result (TtSlyDcas) | MR (Molar Ratio) [3] | Kd [4] [nM] | Weight (contribution to the overall interaction) [4] [%] | koff [4] [s⁻¹] | BL (binding late) [5] [RU] | MR (Molar Ratio) [5] | SL (stability late) [5] [RU] | BL (binding late) [6] [RU] | MR (Molar Ratio) [6] | SL (stability late) [6] [RU] | koff [6] [s⁻¹] | t/2 diss [6] [min] | binding result [7] | further results
anti-HER3 antibody M-17-02 (antibody, V domains shown, mouse hybridoma clone) VH: EVQLQQSGTVLARPGASVKMSCKASGYSFTSYWIHWVKQRPGQGLEWIGAIYPGNSDTTYNQKFKGKAKLTAVTSASTAYMELSSLTNEDSAVYYCARTGVWTSYYFDYWGQGTTLTVSS VL: DIQMTQSPASLSASVGETVTITCRASENIYSNLAWYQQKQGKSPQLLVYAATNLADGVPSRFSGSGSGTQFSLRINSLQPEDFGSYYCQHFYGTPFTFGTGTKLEIK | no binding |  |  |  |  |  |  |  |  |  |  | 10 | 0.1 | 10 | 52 | 1.7 | 50 | 0.0002 | 59 | no binding | binding result [8]: no binding
anti-HER3 antibody M-43-01 (antibody, V domains shown, mouse hybridoma clone) VH: EVQLQQSGTVLARPGASVKMSCKASDYTFSNYWVHWVKQRPGQGLEWIGAIYPGNGDSTYYQKFKGKATLTAVTSTSTAYMDLSSLTNGDSAVYFCTRSGVGYNYYFDYWGQGTTLTVSS VL: DIQMTQSPASLSASVGETVTITCRASENIYSNLAWYQQKQGKSPQLLVYIATNLADGVPSRFSGSGSGTQFSLKINSLQPEDLGSYYCQHFYGTPFTFGTGTKLEIE | no binding | 5.2 | 0.1 | 0.00055 | 110000 | 0 | no binding (tested: 90 nM) | 0.3 | 261 | 69 | 0.141 | 9 | 0.1 | 8 | 53 | 1.7 | 51 | 0.00016 | 73 | no binding | binding result [8]: no binding; kon [4]: 541000 M⁻¹ s⁻¹; koff [5]: 0.00066 s⁻¹; t/2 diss [5]: 18 min

Continued, in another order:

binding result [1] | Kd [2] [nM] | MR (Molar Ratio) [2] | koff [2] [s⁻¹] | kon [2] [M⁻¹ s⁻¹] | MR (Molar Ratio) (TtSlyDcas) | binding result (TtSlyDcas) | MR (Molar Ratio) [3] | Kd [4] [nM] | Weight (contribution to the overall interaction) [4] [%] | koff [4] [s⁻¹] | BL (binding late) [5] [RU] | MR (Molar Ratio) [5] | SL (stability late) [5] [RU] | BL (binding late) [6] [RU] | MR (Molar Ratio) [6] | SL (stability late) [6] [RU] | koff [6] [s⁻¹] | t/2 diss [6] [min] | binding result [7] | Binder | further results
no binding | 3.5 | 0.1 | 0.00037 | 110000 | 0 | no binding (tested: 90 nM) | 0.7 | 419 | 79 | 0.0799 | 61 | 0.4 | 62 | 46 | 1.3 | 45 | 0.000102 | 114 | no binding | anti-HER3 antibody M-08-11 (antibody, V domains shown, mouse monoclonal antibody from hybridoma, tested as hybridoma supernatant or as antibody; also called M-011) VH: QAYLQQSGAELMRPGASVRMSCQASGYTFTSYTIHWLKQTPRQGLEWIGAIYPRNGDFSYNQKFKDKASLTVDTSSSTAYMHLSSLTSEDSAVYFCARTINYGDWFAYWGQGTLVTVSA VL: DIQMIQSPASLFVSEGETVIITCRASENIYSNLAWYHQKKGKSPQVLVYAAIKLADGVPLRFSGSGSGTQFSLKINSLQSEDFGSYYCQHFWGPPYTFGSGTNLEIK | kon [4]: 191000 M⁻¹ s⁻¹; koff [5]: 4.11e-05 s⁻¹; t/2 diss [5]: 281 min
no binding | 3.8 | 0.2 | 0.0004 | 100000 | 0 | no binding (tested: 90 nM) | 0.9 | 356 | 77 | 0.232 | 21 | 0.2 | 17 | 80 | 1.8 | 71 | 0.00028 | 41 | no binding | anti-HER3 antibody M-46-01 (antibody, V domains shown, mouse hybridoma clone) VH: QIQLQQSGPQLVRPGASVKISCKASGYSFTSYWMHWVKQRPGRGLEWIGMIDPSDGVTRLNQKFKDKATLTVDNSSSTAYMQLSSPTSEDSAVHYCARVDVLYWYFDVWGAGTTVTVSS VL: DIVLTQSPASLAVSLGQRATISCRASKSISISGYSYMHWYQQKAGQPPKLLIYLTSNLESGVPARFSGSGSGTDFTLNIHPVEEEDAATYYCHHSRELPFTFGSGTKLEIK | binding result [8]: no binding; kon [4]: 652000 M⁻¹ s⁻¹; koff [5]: 0.00041 s⁻¹; t/2 diss [5]: 28 min
